Measured values: the supplement of paper PMC9233669
This sample holds only a part of the variants without activity.

Legend:
biotinyl-Val-oxazolone = assay: self-aminoacylation, catalytic enhancement (BVO) (fold over background); higher = more active; k-Seq, kA / k0A0; sequences stand for … in GGGAAUGGAUCCACAUCUACGAAUUC…UUCACUGCAGACUUGACGAAGCUG
Procedure, shortened: (§1)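 Mutagenized RNA pools with a 21-nt variable region (0.43 μM) were reacted with each biotinyl-aminoacyl-oxazolone at 2–1250 μM for 90 minutes at room temperature, in 50 μL HEPES/NaCl/KCl/MgCl2/CaCl2 buffer containing 5% acetonitrile at pH 6.9–7.0. RNA captured on streptavidin was quantified by triplicate qPCR and by Illumina sequencing. The fraction reacted for each sequence was fit to a pseudo-first-order model with bootstrapping, and catalytic enhancement is the median kA divided by the uncatalyzed rate, taken as the low-activity peak of a bimodal Gaussian fit.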

biotinyl-Ile-oxazolone = assay: self-aminoacylation, catalytic enhancement (BIO) (fold over background); higher = more active; k-Seq, kA / k0A0; sequences stand for … in GGGAAUGGAUCCACAUCUACGAAUUC…UUCACUGCAGACUUGACGAAGCUG
Procedure, shortened: as §1

biotinyl-Trp-oxazolone = assay: self-aminoacylation, catalytic enhancement (BWO) (fold over background); higher = more active; k-Seq, kA / k0A0; sequences stand for … in GGGAAUGGAUCCACAUCUACGAAUUC…UUCACUGCAGACUUGACGAAGCUG
Procedure, shortened: as §1

biotinyl-Phe-oxazolone = assay: self-aminoacylation, catalytic enhancement (BFO) (fold over background); higher = more active; k-Seq, kA / k0A0; sequences stand for … in GGGAAUGGAUCCACAUCUACGAAUUC…UUCACUGCAGACUUGACGAAGCUG
Procedure, shortened: as §1

biotinyl-Met-oxazolone = assay: self-aminoacylation, catalytic enhancement (BMO) (fold over background); higher = more active; k-Seq, kA / k0A0; sequences stand for … in GGGAAUGGAUCCACAUCUACGAAUUC…UUCACUGCAGACUUGACGAAGCUG
Procedure, shortened: as §1

biotinyl-Leu-oxazolone = assay: self-aminoacylation, catalytic enhancement (BLO) (fold over background); higher = more active; k-Seq, kA / k0A0; sequences stand for … in GGGAAUGGAUCCACAUCUACGAAUUC…UUCACUGCAGACUUGACGAAGCUG
Procedure, shortened: as §1

Sequence | self-aminoacylation (biotinyl-Val-oxazolone) | self-aminoacylation (biotinyl-Ile-oxazolone) | self-aminoacylation (biotinyl-Trp-oxazolone) | self-aminoacylation (biotinyl-Phe-oxazolone) | self-aminoacylation (biotinyl-Met-oxazolone) | self-aminoacylation (biotinyl-Leu-oxazolone)
CUUACCCUGGUCAUGGAGUGA [Fam2.1 aminoacylation ribozyme variant] | 2.21 | 2.16 | 4.01 | 10.1 | 3.59 | 3.74
CUUACGCUGGUCAUCGAGUGA [Fam2.1 aminoacylation ribozyme variant] | 2.61 | 2.13 | 3.35 | 7.86 | 3.06 | 3.03
CUUACUCUGGUCAUCGAGUGA [Fam2.1 aminoacylation ribozyme variant] | 3.07 | 2.54 | 5.52 | 14.2 | 4.98 | 5.28
CUUCACCUACGUCAUCGGGUG [Fam2.2 aminoacylation ribozyme variant] | 3.69 | 3.06 | 4.58 | 37.8 | 5.1 | 5.63
CUUCACCUAGGACAUCGGGUG [Fam2.2 aminoacylation ribozyme variant] | 2.68 | 2.34 | 3.31 | 14.1 | 3.03 | 3.53
CUUCACCUAGGCCAUCGGGUG [Fam2.2 aminoacylation ribozyme variant] | 3.8 | 2.55 | 4.2 | 11.2 | 3.12 | 4.08
CUUCACCUAGGUCAUCAGGUG [Fam2.2 aminoacylation ribozyme variant] | 1.7 | 1.46 | 1.31 | 1.47 | 1.62 | 1.84
CUUCACCUAGGUCAUCGCGUG [Fam2.2 aminoacylation ribozyme variant] | 8.89 | 7.29 | 10.9 | 96.5 | 12.4 | 13.6
CUUCACCUAGGUCAUCGGGUG [Fam2.2 aminoacylation ribozyme variant] | 5.18 | 4.63 | 6.65 | 34.6 | 7.51 | 9
CUUCACCUAGGUCAUCGGGUU [Fam2.2 aminoacylation ribozyme variant] | 3.77 | 4.09 | 5.02 | 18.1 | 5.02 | 7.09
CUUCACCUAGGUCAUUGGGUG [Fam2.2 aminoacylation ribozyme variant] | 2.22 | 1.98 | 2.35 | 12.3 | 2.36 | 2.25
CUUCACCUAUGUCAUCGGGUG [Fam2.2 aminoacylation ribozyme variant] | 2.83 | 2.35 | 4.46 | 17 | 3.64 | 4.68
CUUCACGUAGGUCAUCGGGUG [Fam2.2 aminoacylation ribozyme variant] | 4.16 | 3.59 | 4.63 | 36.6 | 4.38 | 4.22
CUUCACUUCAAGCAAUCGGUC [Fam1B.1 aminoacylation ribozyme variant] | 1.15 | 1.05 | 20.9 | 46.4 | 1.16 | 1.55
CUUCAGCUAGGUCAUCGGGUG [Fam2.2 aminoacylation ribozyme variant] | 3.6 | 2.65 | 3.83 | 16 | 3.42 | 3.57
CUUCGCCUAGGUCAUCGGGUG [Fam2.2 aminoacylation ribozyme variant] | 4.54 | 3.75 | 5.8 | 37.4 | 3.41 | 4.47
CUUCUCCUAGGUCAUCGGGUG [Fam2.2 aminoacylation ribozyme variant] | 4.48 | 4.42 | 6.52 | 35.6 | 6.43 | 8.84
CUUCUUAAAACAAUCGGUCUG [Fam1A.1 aminoacylation ribozyme variant] | 0.748 | 0.859 | 0.564 | 0.699 | 0.895 | 0.739
CUUCUUCAAAAAAUCGGUCUG [Fam1A.1 aminoacylation ribozyme variant] | 0.851 | 1 | 5.39 | 6.58 | 0.902 | 1.02
CUUCUUCAAACAAUCGGUCUC [Fam1A.1 aminoacylation ribozyme variant] | 0.874 | 0.814 | 13.6 | 28.6 | 0.773 | 1.08
CUUCUUCAAACAAUCGUUCUG [Fam1A.1 aminoacylation ribozyme variant] | 0.6 | 0.68 | 0.804 | 1.06 | 0.62 | 0.65
CUUCUUCAAUCAAUCGGUCUG [Fam1A.1 aminoacylation ribozyme variant] | 0.956 | 0.975 | 11.3 | 18.9 | 0.986 | 1.21
CUUGACCUAGGUCAUCGGGUG [Fam2.2 aminoacylation ribozyme variant] | 3.87 | 3.43 | 5.2 | 23.2 | 3.39 | 4.42
CUUGCCCUGGUCAUCGAGUGA [Fam2.1 aminoacylation ribozyme variant] | 7.34 | 6.56 | 16.5 | 64.3 | 15.4 | 14.7
CUUGUUCAAACAAUCGGUCUG [Fam1A.1 aminoacylation ribozyme variant] | 0.967 | 1.07 | 3.07 | 5.84 | 0.957 | 1.18
CUUUACCUAGGUCAUCGGGUG [Fam2.2 aminoacylation ribozyme variant] | 3.71 | 3.85 | 5.46 | 25.3 | 5.23 | 7.1

Sequence | self-aminoacylation (biotinyl-Val-oxazolone) | self-aminoacylation (biotinyl-Ile-oxazolone) | self-aminoacylation (biotinyl-Trp-oxazolone) | self-aminoacylation (biotinyl-Phe-oxazolone) | self-aminoacylation (biotinyl-Met-oxazolone) | self-aminoacylation (biotinyl-Leu-oxazolone)
CUUUUUCAAACAAUCGGUCUG [Fam1A.1 aminoacylation ribozyme variant] | 0.815 | 0.86 | 3.86 | 6.81 | 0.67 | 0.89
GAGUCUGCUAAUAGUCGCAAG [Fam3.1 aminoacylation ribozyme variant] | 1.63 | 1.99 | 14 | 46.9 | 2.34 | 2.07
GAGUUUACUAAUAGUCGCAAG [Fam3.1 aminoacylation ribozyme variant] | 1.29 | 1.84 | 2.33 | 3.13 | 1.19 | 1.59
GAGUUUGCUAAUAGUCGCAAG [Fam3.1 aminoacylation ribozyme variant] | 1.5 | 1.72 | 7.44 | 22.7 | 1.78 | 1.39
GAGUUUGCUAAUUGUCGCAAG [Fam3.1 aminoacylation ribozyme variant] | 1.24 | 1.36 | 2.06 | 2.2 | 1.34 | 1.53
GAGUUUGCUAUUAGUCGCAAG [Fam3.1 aminoacylation ribozyme variant] | 1.01 | 1.18 | 1.72 | 2.47 | 1.17 | 1.28
GAUACCCUGGUCAUCGAGUGA [Fam2.1 aminoacylation ribozyme variant] | 5.43 | 4.92 | 10.5 | 31.6 | 8.5 | 7.96
GCAAACUUCAAGCAAUCGGUC [Fam1B.1 aminoacylation ribozyme variant] | 2.17 | 2.13 | 19.5 | 21.7 | 2.05 | 2.47
GCACACUUAAAGCAAUCGGUC [Fam1B.1 aminoacylation ribozyme variant] | 1.18 | 1.25 | 1.49 | 1.1 | 1.06 | 1.15
GCACACUUCAAGAAAUCGGUC [Fam1B.1 aminoacylation ribozyme variant] | 1.59 | 1.97 | 8.15 | 7.74 | 1.87 | 2.21
GCACACUUCAAGCAAUCGGUG [Fam1B.1 aminoacylation ribozyme variant] | 5.92 | 6.23 | 10.1 | 49.1 | 8.09 | 10.3
GCACACUUCAAGCAGUCGGUC [Fam1B.1 aminoacylation ribozyme variant] | 1.41 | 1.56 | 1.69 | 1.33 | 1.55 | 1.75
GCACACUUCAAGCCAUCGGUC [Fam1B.1 aminoacylation ribozyme variant] | 2.57 | 2.81 | 3.87 | 8.33 | 2.32 | 2.81
GCACACUUCAAGGAAUCGGUC [Fam1B.1 aminoacylation ribozyme variant] | 1.22 | 1.67 | 4.35 | 3.95 | 1.55 | 1.61
GCACACUUCAAGUAAUCGGUC [Fam1B.1 aminoacylation ribozyme variant] | 1.7 | 1.89 | 8.15 | 8.6 | 1.88 | 1.77
GCACACUUCGAGCAAUCGGUC [Fam1B.1 aminoacylation ribozyme variant] | 1.81 | 1.87 | 2.86 | 2.2 | 1.9 | 1.46
GCACACUUCUAGCAAUCGGUC [Fam1B.1 aminoacylation ribozyme variant] | 1.22 | 1.2 | 1.28 | 1.34 | 0.936 | 0.999
GUACACUUCAAGCAAUCGGUC [Fam1B.1 aminoacylation ribozyme variant] | 1.34 | 1.55 | 18.4 | 21.1 | 1.29 | 1.64
GUACUUCAAACAAUCGCUCUG [Fam1A.1 aminoacylation ribozyme variant] | 1.71 | 1.77 | 3.76 | 3.1 | 1.91 | 1.88
GUACUUCAAACAAUCGGCCUG [Fam1A.1 aminoacylation ribozyme variant] | 4.17 | 4.51 | 89.6 | 272 | 4.06 | 7.02
GUACUUCAAACAAUCGGGCUG [Fam1A.1 aminoacylation ribozyme variant] | 2.8 | 3.02 | 14.6 | 21.1 | 2.47 | 2.67
GUACUUCAAACAAUCUGUCUG [Fam1A.1 aminoacylation ribozyme variant] | 1.56 | 1.76 | 3.06 | 4.1 | 1.41 | 1.45
GUACUUCAAACAUUCGGUCUG [Fam1A.1 aminoacylation ribozyme variant] | 1.96 | 1.63 | 2.34 | 6.13 | 1.6 | 1.66
GUACUUCACACAAUCGGUCUG [Fam1A.1 aminoacylation ribozyme variant] | 1.3 | 1.34 | 1.67 | 1.5 | 1.02 | 1.11
GUACUUCAGACAAUCGGUCUG [Fam1A.1 aminoacylation ribozyme variant] | 1.06 | 1.22 | 1.56 | 4.98 | 1.2 | 1.32
